Assay results published in patent US20230277625A1 (SIMCHA IL 18, published 2023).

Tests used:
[1] = molecular target: T1, Human IL-18BP (amino acids 31-194), biotinylated (human, UniProt O95998 31-194, biotin on the AviTag (BirA ligase) where used biotinylated); test: SPR; KD(IL-18BP)/KD(IL-18Rα) normalized to WT IL-18
T1 construct: Soluble decoy receptor; also called hIL-18BP; recombinant IL-18BP
T1 sequence: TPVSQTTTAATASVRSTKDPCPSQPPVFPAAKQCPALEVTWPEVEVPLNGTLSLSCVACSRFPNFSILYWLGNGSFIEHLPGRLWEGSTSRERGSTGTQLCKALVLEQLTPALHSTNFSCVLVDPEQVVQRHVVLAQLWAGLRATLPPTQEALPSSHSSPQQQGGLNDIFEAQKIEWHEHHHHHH

[2] = molecular target: T1, Human IL-18BP (amino acids 31-194), …; test: on-yeast binding isotherm (flow cytometry); members per FIG. 5A legend
Experimental: Individual colonies of IL-18 yeast were grown overnight at 30° C. in SDCAA liquid media and induced in SGCAA liquid media for 1 day at 20° C. IL-18 display levels on yeast were verified by flow cytometry using an anti-cMyc tag antibody (anti-myc-PE; Cell Signaling Technologies). Receptor staining with biotinylated IL-18Rα (with or without IL-18R β) or biotinylated IL-18BP was performed in PBS supplemented with 0.5% BSA and 2 mM EDTA (PBE) on ice. All analysis was performed on a Sony SA3800 flow cytometer.
(§1) To additionally characterize the receptor binding activities of the DR-IL-18 variants, the cytokines were expressed recombinantly and surface plasmon resonance for IL-18Rα and IL-18BP was performed (see FIG. 5B for representative traces).

[3] = molecular target: T1, Human IL-18BP (amino acids 31-194), …; test: SPR; average of 2 studies; SPR, average of 2 studies
[4] = molecular target: T1, Human IL-18BP (amino acids 31-194), …; test: on-yeast binding isotherms; KD ratio relative to WT IL-18; yeast-displayed variant; ratio normalized to WT, from the 20 µM placeholder
[5] = molecular target: T2, Human IL-18Rα ectodomain (amino acids 19-329), biotinylated (human, UniProt Q13478 19-329, biotin on the AviTag (BirA ligase)); test: SPR; average of 2 studies
T2 construct: range 19-329; Secreted from insect cells (gp67 signal peptide removed); also called hIL-18Rα; hIL18Rα
T2 sequence: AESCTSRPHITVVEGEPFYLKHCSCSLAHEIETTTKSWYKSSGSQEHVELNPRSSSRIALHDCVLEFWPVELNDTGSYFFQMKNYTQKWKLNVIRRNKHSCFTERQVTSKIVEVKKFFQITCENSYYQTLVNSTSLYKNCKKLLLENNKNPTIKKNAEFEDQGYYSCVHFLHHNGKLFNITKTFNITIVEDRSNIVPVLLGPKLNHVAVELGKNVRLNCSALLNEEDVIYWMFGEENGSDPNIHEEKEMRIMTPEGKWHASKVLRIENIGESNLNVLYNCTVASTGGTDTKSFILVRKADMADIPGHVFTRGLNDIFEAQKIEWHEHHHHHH

[6] = molecular target: T1, Human IL-18BP (amino acids 31-194), …; test: SPR; KD ratio relative to WT IL-18; SPR; ratio normalized to WT
Experimental: (§2) Experiments were conducted using a Biacore T100 and carried out at 25° C. Biotinylated IL-18Rα or IL-18BP were immobilized onto a Biacore biotin capture chip (Series S CAP sensor chip, GE Healthcare) to yield an Rmax of ˜50 RU (IL-18Rα) or ˜10 RU (IL-18BP). Measurements were made with serial dilutions of the IL-18 variants in HEPES buffered Saline-P+buffer (10 mM HEPES pH 7.4, 150 mM NaCl, 0.005% surfactant P20). The surface was regenerated by three 60-sec injections of regeneration buffer (3/4 (v/v) 8M guanidine hydrochloride with 1/4 (v/v) 1M sodium hydroxide). Experiments were performed in multiple channels simultaneously for increased observations. All data were analyzed with the Biacore T100 evaluation software version 2.0 with a 1:1 Langmuir binding model.
as §1

[7] = molecular target: T1, Human IL-18BP (amino acids 31-194), …; test: on-yeast binding isotherms; 20 µM used for NBD; yeast-displayed variant; ratio computed with 20 µM put in for NBD
[8] = molecular target: T2, Human IL-18Rα ectodomain (amino acids …); test: SPR (Biacore T100), receptor captured via biotin, IL-18 as analyte
Experimental: as §2, §1

[9] = molecular target: T1, Human IL-18BP (amino acids 31-194), …; test: SPR; KD for IL-18BP over KD for IL-18Rα; SPR; ratio of two measured KD
Experimental: as §2, §1

[10] = molecular target: T1, Human IL-18BP (amino acids 31-194), …; test: SPR (Biacore T100), IL-18BP captured via biotin, IL-18 as analyte; SPR, recombinant soluble variant, biotinylated hIL-18BP on the chip
Experimental: as §2, §1

B1: SEQ ID NO: 37 (human DR-IL-18 variant hCS4) (ligand)
chain: RFGKLESKLSVIRNLNDQVLFIDQGNRPLFEDMTDSDCRDNAPRTIFIISTYRDSQPRGKAVTISVKCEKISTLSCENKIISFKEMNPPDNIKDTKSDIIFFQRNVPGHKYKMQFESSSYEGYFLACEKERDLFKLILKKEDELGDRSIMFTVQNED
notes: Engineered variant
B1 was tested, and the “IL-18 BP:Rα Dissociation Constant Ratio” value [1] was 32200, the EC50 [2] was > 1000 nM and the Kd [3] was 121 nM. For the same binder, the “Dissociation Constant Ratio normalized to WT IL-18” value [4] was > 424, the Kd [5] was 7.7 nM and the “Dissociation Constant Ratio normalized to WT IL-18” value [6] was 64500. For the same binder, the “KD ratio IL-18BP/IL-18Rα” value [7] was > 125, the Kd [8] was 4.38 nM and the “KD ratio IL-18BP/IL-18Rα” value [9] was 41.8. For the same binder, the Kd [10] was 183 nM.
